Data from the supplement of paper PMC10598134.
± gives the standard deviation.

Assay: collision cross section of modified peptide (TIMS, N2, iRT-aligned); higher = larger / more extended gas-phase ion
Method in brief: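 Collision cross section values rest on the Mason-Schamp equation applied to calibrated, run-aligned mobility data from synthetic peptides. Mobility (1/K0) was calibrated with three reference ions and aligned per run to the median iRT peptide deviation, and 1–3 technical replicates of the most abundant feature per charge state were averaged. Data came from a timsTOF Pro/HT in dda-PASEF mode (nitrogen, ~2.4 mbar) after a 120-min nanoflow C18 gradient at 60 °C.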

[1] = charge state: 2, modification: Formyl
[2] = charge state: 2, modification: Glutarylation
[3] = charge state: 3, modification: Glutarylation
[4] = charge state: 3, modification: GlyGly (K)
[5] = charge state: 2, modification: Malonyl
[6] = charge state: 2, modification: Methyl (K)
[7] = charge state: 3, modification: Methyl (K)
[8] = charge state: 2, modification: Propionyl
[9] = charge state: 2, modification: Succinyl
[10] = charge state: 2, modification: Trimethyl (K)
[11] = charge state: 3, modification: Trimethyl (K)
[12] = charge state: 2, modification: hydroxyisobutyryl
[13] = charge state: 3, modification: Citrullination (R)
[14] = charge state: 3, modification: Methyl (R)
[15] = charge state: 2, modification: Acetyl (K)
[16] = charge state: 3, modification: Acetyl (K)
[17] = charge state: 2, modification: Biotin
[18] = charge state: 2, modification: Butyryl
[19] = charge state: 3, modification: Butyryl
[20] = charge state: 2, modification: Crotonyl
[21] = charge state: 3, modification: Crotonyl
[22] = charge state: 3, modification: Dimethyl (K)
[23] = charge state: 2, modification: GlyGly (K)
[24] = charge state: 3, modification: Malonyl
[25] = charge state: 3, modification: Succinyl
[26] = charge state: 3, modification: hydroxyisobutyryl
[27] = charge state: 2, modification: HexNAc (ST)
[28] = charge state: 2, modification: Nitro (Y)
[29] = charge state: 2, modification: Phospho (Y)
[30] = charge state: 2, modification: Dimethyl (K)

In the case of TPNLYIYSKK [_TPNLYIYSK(Formyl)K_], the collision cross section [1] is reported as 377.67 ± 0.9 Å².

“TPNLYIYSKK [_TPNLYIYSK(Gluratylation)K_]” showed a collision cross section [2] of 398.57 ± 0.6 Å² and a collision cross section [3] of 451.21 ± 1.7 Å².

TPNLYIYSKK [_TPNLYIYSK(GlyGly (K))K_] showed a collision cross section [4] of 446.34 ± 1.1 Å².

TPNLYIYSKK [_TPNLYIYSK(Malonyl)K_] gave a collision cross section [5] of 383.2 ± 0.78 Å².

With TPNLYIYSKK [_TPNLYIYSK(Methyl (K))K_] the collision cross section [6] was 377.12 ± 0.28 Å² and the collision cross section [7] was 428.93 ± 5.2 Å².

Sequence TPNLYIYSKK [_TPNLYIYSK(Propionyl)K_] has a collision cross section [8] of 384.03 Å².

Work on TPNLYIYSKK [_TPNLYIYSK(Succinyl)K_] yielded a collision cross section [9] of 387.96 ± 0.52 Å².

“TPNLYIYSKK [_TPNLYIYSK(Trimethyl (K))K_]” gave a collision cross section [10] of 381.37 ± 0.61 Å² and a collision cross section [11] of 442.31 Å².

In the case of “TPNLYIYSKK [_TPNLYIYSK(hydroxyisobutyryl)K_]”, the collision cross section [12] is reported as 388.68 ± 3 Å².

“TPSSFRQPFTPTSR [_TPSSFR(Citrullination (R))QPFTPTSR_]” gave a collision cross section [13] of 499.72 Å².

In the case of “TPSSFRQPFTPTSR [_TPSSFR(Methyl (R))QPFTPTSR_]”, the collision cross section [14] is reported as 481.78 ± 1.9 Å².

Work on “TQAEGQGQGRGLGLVSAVR [_TQAEGQGQGR(Citrullination (R))GLGLVSAVR_]” yielded a collision cross section [13] of 549.33 ± 0.79 Å².

Work on “TQAEGQGQGRGLGLVSAVR [_TQAEGQGQGR(Methyl (R))GLGLVSAVR_]” yielded a collision cross section [14] of 510.91 ± 2 Å².

With “TQAYQDQKPGTSGLR [_TQAYQDQK(Acetyl (K))PGTSGLR_]” the collision cross section [15] was 429.11 ± 1.6 Å² and the collision cross section [16] was 480.53 ± 6.7 Å².

In the case of “TQAYQDQKPGTSGLR [_TQAYQDQK(Biotin)PGTSGLR_]”, the collision cross section [17] is reported as 446.01 ± 0.23 Å² and the collision cross section (charge state: 3, modification: Biotin) is reported as 500.74 ± 0.34 Å².

“TQAYQDQKPGTSGLR [_TQAYQDQK(Butyryl)PGTSGLR_]” gave a collision cross section [18] of 427.73 ± 0.77 Å² and a collision cross section [19] of 479.17 ± 3.5 Å².

Work on “TQAYQDQKPGTSGLR [_TQAYQDQK(Crotonyl)PGTSGLR_]” yielded a collision cross section [20] of 430.35 ± 3.2 Å² and a collision cross section [21] of 480.34 ± 2.8 Å².

For “TQAYQDQKPGTSGLR [_TQAYQDQK(Dimethyl (K))PGTSGLR_]”, the collision cross section [22] was 464.17 ± 1.6 Å².

“TQAYQDQKPGTSGLR [_TQAYQDQK(Formyl)PGTSGLR_]” gave a collision cross section [1] of 427.08 ± 0.79 Å².

Sequence “TQAYQDQKPGTSGLR [_TQAYQDQK(Gluratylation)PGTSGLR_]” has a collision cross section [2] of 436.36 ± 1.1 Å² and a collision cross section [3] of 483.65 ± 1 Å².

Work on “TQAYQDQKPGTSGLR [_TQAYQDQK(GlyGly (K))PGTSGLR_]” yielded a collision cross section [23] of 432.62 ± 1.4 Å² and a collision cross section [4] of 500.32 ± 0.35 Å².

“TQAYQDQKPGTSGLR [_TQAYQDQK(Malonyl)PGTSGLR_]” gave a collision cross section [5] of 430.62 ± 0.59 Å² and a collision cross section [24] of 484.2 Å².

For “TQAYQDQKPGTSGLR [_TQAYQDQK(Methyl (K))PGTSGLR_]”, the collision cross section [6] was 422.44 Å² and the collision cross section [7] was 472.98 ± 2.7 Å².

In the case of “TQAYQDQKPGTSGLR [_TQAYQDQK(Propionyl)PGTSGLR_]”, the collision cross section [8] is reported as 428.95 ± 1.4 Å².

Sequence “TQAYQDQKPGTSGLR [_TQAYQDQK(Succinyl)PGTSGLR_]” has a collision cross section [9] of 434.09 ± 1.1 Å² and a collision cross section [25] of 483.43 ± 3.9 Å².

Sequence “TQAYQDQKPGTSGLR [_TQAYQDQK(Trimethyl (K))PGTSGLR_]” has a collision cross section [11] of 476 ± 1.5 Å².

“TQAYQDQKPGTSGLR [_TQAYQDQK(hydroxyisobutyryl)PGTSGLR_]” gave a collision cross section [12] of 431.22 ± 0.52 Å² and a collision cross section [26] of 484.99 ± 2.8 Å².

With “TQDQISNIKYHEEFEK [_TQDQISNIK(Acetyl (K))YHEEFEK_]” the collision cross section [15] was 481.39 Å² and the collision cross section [16] was 555.65 ± 0.58 Å².

With “TQDQISNIKYHEEFEK [_TQDQISNIK(Butyryl)YHEEFEK_]” the collision cross section [19] was 559.77 ± 1.1 Å².

Sequence “TQDQISNIKYHEEFEK [_TQDQISNIK(Crotonyl)YHEEFEK_]” has a collision cross section [21] of 560.13 Å².

Work on “TQDQISNIKYHEEFEK [_TQDQISNIK(Dimethyl (K))YHEEFEK_]” yielded a collision cross section [22] of 542.8 ± 0.41 Å².

Sequence “TQDQISNIKYHEEFEK [_TQDQISNIK(Formyl)YHEEFEK_]” has a collision cross section (charge state: 3, modification: Formyl) of 551.65 ± 1.7 Å².

Work on “TQDQISNIKYHEEFEK [_TQDQISNIK(Gluratylation)YHEEFEK_]” yielded a collision cross section [3] of 554.46 ± 0.14 Å².

With “TQDQISNIKYHEEFEK [_TQDQISNIK(GlyGly (K))YHEEFEK_]” the collision cross section [4] was 559.05 ± 0.57 Å².

“TQDQISNIKYHEEFEK [_TQDQISNIK(Malonyl)YHEEFEK_]” gave a collision cross section [24] of 548.96 ± 0.016 Å².

“TQDQISNIKYHEEFEK [_TQDQISNIK(Methyl (K))YHEEFEK_]” showed a collision cross section [7] of 547.22 ± 0.37 Å².

Work on “TQDQISNIKYHEEFEK [_TQDQISNIK(Succinyl)YHEEFEK_]” yielded a collision cross section [25] of 549.89 ± 1.1 Å².

Work on “TQDQISNIKYHEEFEK [_TQDQISNIK(Trimethyl (K))YHEEFEK_]” yielded a collision cross section [11] of 544.72 ± 0.9 Å².

With “TQDQISNIKYHEEFEK [_TQDQISNIK(hydroxyisobutyryl)YHEEFEK_]” the collision cross section [12] was 492.05 Å² and the collision cross section [26] was 557.98 ± 1.2 Å².

TQSFSLQER [_T(HexNAc (ST))QSFSLQER_] gave a collision cross section [27] of 373.04 ± 0.83 Å².

Sequence “TSAVSSQANSQPPVQVSVK [_T(HexNAc (ST))SAVSSQANSQPPVQVSVK_]” has a collision cross section (charge state: 3, modification: HexNAc (ST)) of 513.92 Å².

Sequence “TSAVSSQANSQPPVQVSVK [_TSAVSSQANSQPPVQVS(HexNAc (ST))VK_]” has a collision cross section [27] of 471.02 Å².

TSAYGPPTR [_TSAY(Nitro (Y))GPPTR_] gave a collision cross section [28] of 326.25 ± 1.1 Å².

Work on TSAYGPPTR [_TSAY(Phospho (Y))GPPTR_] yielded a collision cross section [29] of 336.75 ± 0.067 Å².

With “TSSEASVSSSVAK [_T(HexNAc (ST))SSEASVSSSVAK_]” the collision cross section [27] was 394.41 ± 0.76 Å².

Sequence TSYAQHQQVR [_TSY(Nitro (Y))AQHQQVR_] has a collision cross section [28] of 366.98 ± 0.94 Å² and a collision cross section (charge state: 3, modification: Nitro (Y)) of 458.71 ± 1.2 Å².

TSYAQHQQVR [_TSY(Phospho (Y))AQHQQVR_] gave a collision cross section [29] of 370.43 ± 0.064 Å² and a collision cross section (charge state: 3, modification: Phospho (Y)) of 475.13 ± 0.98 Å².

TTEETSKPK [_TTEETSK(Acetyl (K))PK_] showed a collision cross section [15] of 334.91 ± 0.21 Å².

Sequence TTEETSKPK [_TTEETSK(Biotin)PK_] has a collision cross section [17] of 372.34 Å².

In the case of TTEETSKPK [_TTEETSK(Butyryl)PK_], the collision cross section [18] is reported as 338.9 ± 1.2 Å².

In the case of TTEETSKPK [_TTEETSK(Crotonyl)PK_], the collision cross section [20] is reported as 346.33 ± 11 Å².

Work on TTEETSKPK [_TTEETSK(Dimethyl (K))PK_] yielded a collision cross section [30] of 338.18 ± 1.5 Å² and a collision cross section [22] of 409.31 Å².

For TTEETSKPK [_TTEETSK(Formyl)PK_], the collision cross section [1] was 332.42 ± 4.9 Å².

TTEETSKPK [_TTEETSK(Gluratylation)PK_] showed a collision cross section [2] of 352.76 ± 0.56 Å².

TTEETSKPK [_TTEETSK(GlyGly (K))PK_] gave a collision cross section [23] of 355.85 ± 0.24 Å² and a collision cross section [4] of 431.05 ± 2.7 Å².

TTEETSKPK [_TTEETSK(Malonyl)PK_] gave a collision cross section [5] of 336.7 ± 0.59 Å².

TTEETSKPK [_TTEETSK(Methyl (K))PK_] showed a collision cross section [6] of 342.29 ± 0.79 Å² and a collision cross section [7] of 431.66 Å².

TTEETSKPK [_TTEETSK(Propionyl)PK_] gave a collision cross section [8] of 342.02 ± 0.39 Å².

In the case of TTEETSKPK [_TTEETSK(Succinyl)PK_], the collision cross section [9] is reported as 347.17 ± 0.86 Å².

For TTEETSKPK [_TTEETSK(Trimethyl (K))PK_], the collision cross section [10] was 342 ± 0.055 Å².

Work on “TTEETSKPK [_TTEETSK(hydroxyisobutyryl)PK_]” yielded a collision cross section [12] of 347.15 ± 3.9 Å².

Work on “TTGFYSGFSEVAEKR [_TTGFYSGFSEVAEK(Acetyl (K))R_]” yielded a collision cross section [15] of 434.33 ± 1.7 Å² and a collision cross section [16] of 508.12 ± 0.12 Å².

Sequence “TTGFYSGFSEVAEKR [_TTGFYSGFSEVAEK(Butyryl)R_]” has a collision cross section [18] of 442.26 ± 0.29 Å².

With “TTGFYSGFSEVAEKR [_TTGFYSGFSEVAEK(Crotonyl)R_]” the collision cross section [20] was 441.38 ± 0.77 Å².

“TTGFYSGFSEVAEKR [_TTGFYSGFSEVAEK(Dimethyl (K))R_]” showed a collision cross section [30] of 453.39 ± 1.3 Å² and a collision cross section [22] of 504.73 ± 0.75 Å².

In the case of “TTGFYSGFSEVAEKR [_TTGFYSGFSEVAEK(Formyl)R_]”, the collision cross section [1] is reported as 430.24 ± 0.79 Å².

With “TTGFYSGFSEVAEKR [_TTGFYSGFSEVAEK(Gluratylation)R_]” the collision cross section [2] was 443.45 ± 0.95 Å² and the collision cross section [3] was 517.64 Å².

In the case of “TTGFYSGFSEVAEKR [_TTGFYSGFSEVAEK(GlyGly (K))R_]”, the collision cross section [23] is reported as 463.26 ± 1.6 Å² and the collision cross section [4] is reported as 525.41 ± 1.1 Å².

Work on “TTGFYSGFSEVAEKR [_TTGFYSGFSEVAEK(Malonyl)R_]” yielded a collision cross section [5] of 440.22 ± 1.2 Å².

“TTGFYSGFSEVAEKR [_TTGFYSGFSEVAEK(Methyl (K))R_]” gave a collision cross section [6] of 449.23 ± 2.4 Å² and a collision cross section [7] of 510.26 ± 2 Å².

Work on “TTGFYSGFSEVAEKR [_TTGFYSGFSEVAEK(Succinyl)R_]” yielded a collision cross section [9] of 441.9 ± 0.5 Å² and a collision cross section [25] of 512.39 ± 1.6 Å².
